Consider 167 variants from the RNAGym collection of RNA variant scans (doi:10.1093/nar/gkz1192).

To fix the notation:
B1: CPEB3 Ribozyme (parent)
chain: UAACAGGGGGCCACAGCAGAAGCGUUCACGUCGCAGCCCCUGUCAGAUUCUGGUGAAUCUGCGAAUUCUGCUGUAUAUCUC

The data set covers variants of B1. As to the kind of experiment: self-cleavage, relative activity (ratio to wild type); higher = more cleavage; in vitro, sequencing. The essentials: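 Libraries of CPEB3 self-cleaving ribozyme mutants came from rounds of error-prone PCR and carried barcodes, which DNA sequencing matched to variants. In vitro transcription used T7 RNA polymerase at 37°C for 5 hours, with a further 15 min in DNase I before EDTA stopped the reaction; the ribozymes cleaved during both steps. The RNA was reverse transcribed with template switching and sequenced on Illumina. Relative activity is the cleaved/total read fraction of a variant divided by that of the unmutated ribozyme, averaged over three batches with at least 5 reads.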
As for C17G U80A, the self-cleavage is 0.37.

On to G16C U41C, for which the self-cleavage was determined as 0.42.

Take A15U U76A: the self-cleavage stood at 1.17.

Take A15U U76C: the self-cleavage is 0.88.

Turning to G16C A18U, the self-cleavage was determined as 0.28.

In the case of A15U C62U, the self-cleavage worked out at 0.18.

With A15U C62A, the self-cleavage stood at 0.14.

On to G16A U69C, for which the self-cleavage is 0.16.

For the variant G16A U69G, the self-cleavage was 0.2.

Consider G16A U69A, for which the self-cleavage amounted to 0.19.

Take C17U A47U: the self-cleavage stood at 0.33.

For the variant C17G A75U, the self-cleavage came to 0.52.

For C17G A64G, the self-cleavage amounted to 0.35.

With C17G A64U, the self-cleavage stood at 0.17.

Regarding C17G U51C, the self-cleavage amounted to 0.6.

Consider G16A C27A, for which the self-cleavage came to 0.17.

C17A A18G: the self-cleavage turned out to be 0.48.

Turning to C17A A18U, the self-cleavage was found to be 0.11.

Regarding G16U C32A, the self-cleavage stood at 0.2.

With G16A U31G, the self-cleavage turned out to be 0.47.

With G16A U31A, the self-cleavage was 0.19.

As for C17A U72G, the self-cleavage worked out at 0.16.

On to A15U G22C, for which the self-cleavage worked out at 0.06.

Consider C17G C79U, for which the self-cleavage was 0.27.

As for A15U U31C, the self-cleavage was determined as 0.35.

With A15U U31G, the self-cleavage was 0.39.

As to A15U U31A, the self-cleavage was determined as 0.45.

On to G16A U25C, for which the self-cleavage turned out to be 0.18.

G16A U25A: the self-cleavage is 0.36.

With A15U U25G, the self-cleavage was determined as 0.46.

A15U U25C: the self-cleavage is 0.25.

As for A15U U25A, the self-cleavage was determined as 0.2.

On to A15U U80A, for which the self-cleavage was 1.01.

Regarding A15U U80C, the self-cleavage worked out at 1.03.

For A15U U66C, the self-cleavage was determined as 0.23.

Consider A15U U66A, for which the self-cleavage turned out to be 0.34.

Turning to C17G U25G, the self-cleavage came out at 0.06.

Take C17G U25C: the self-cleavage is 0.11.

Take C17G U25A: the self-cleavage came to 0.09.

Take G16U U43C: the self-cleavage is 0.15.

On to G16U U41C, for which the self-cleavage was 0.41.

Turning to C17U C71A, the self-cleavage stood at 0.15.

With C17U A28G, the self-cleavage is 0.36.

As for C17U A28C, the self-cleavage was determined as 0.51.

For the variant C17U A28U, the self-cleavage worked out at 0.41.

Regarding A15U U54G, the self-cleavage was found to be 0.59.

For the variant A15U U54A, the self-cleavage was determined as 0.8.

As for A15U U54C, the self-cleavage amounted to 0.77.

Turning to A15U U74G, the self-cleavage came to 0.97.

Take A15U U74C: the self-cleavage was 0.97.

A15U U74A: the self-cleavage was 1.02.

Regarding A15U G52A, the self-cleavage came out at 1.05.

For A15U G33U, the self-cleavage turned out to be 0.52.

With A15U G33A, the self-cleavage is 0.17.

A15U G42A: the self-cleavage was 0.61.

Consider G16A U54C, for which the self-cleavage was determined as 0.66.

In the case of G16C C50U, the self-cleavage was 0.18.

In the case of G16C A56G, the self-cleavage stood at 0.21.

As to C17U U25A, the self-cleavage came out at 0.27.

Take C17A U26A: the self-cleavage stood at 0.36.

On to G16U A56G, for which the self-cleavage came to 0.28.

On to G16C U48G, for which the self-cleavage was 0.18.

Turning to C17U A56U, the self-cleavage was found to be 0.22.

For C17U A56G, the self-cleavage came to 0.47.

As for G16C U67C, the self-cleavage is 0.42.

Consider G16U U78C, for which the self-cleavage stood at 0.27.

Take G16U A18G: the self-cleavage was 0.29.

Consider G16A A28U, for which the self-cleavage was determined as 0.21.

For G16A A28G, the self-cleavage was found to be 0.25.

As to C17A U41A, the self-cleavage is 0.1.

Consider G16C U76C, for which the self-cleavage was 0.41.

In the case of C17U C38A, the self-cleavage came out at 0.39.

Regarding C17G C32U, the self-cleavage turned out to be 0.27.

Take C17G C32G: the self-cleavage was 0.23.

Regarding G16A A20G, the self-cleavage is 0.24.

For the variant G16A A20U, the self-cleavage turned out to be 0.16.

Turning to G16U U54G, the self-cleavage turned out to be 0.55.

Consider C17U A21C, for which the self-cleavage came out at 0.12.

With C17U A21G, the self-cleavage was 0.32.

As for G16A C79A, the self-cleavage came out at 0.81.

C17G U41A: the self-cleavage is 0.25.

In the case of C17G U41G, the self-cleavage worked out at 0.08.

With G16U U74C, the self-cleavage is 0.58.

C17G C34G: the self-cleavage amounted to 0.36.

As to C17U G36A, the self-cleavage is 0.17.

As to C17A A65U, the self-cleavage turned out to be 0.15.

For the variant G16U G61A, the self-cleavage came out at 0.18.

As for A15U C44G, the self-cleavage was 0.31.

In the case of A15U C44U, the self-cleavage is 0.22.

As for A15U C44A, the self-cleavage amounted to 0.32.

On to G16A U26A, for which the self-cleavage turned out to be 0.34.

With G16A U26C, the self-cleavage was 0.13.

Regarding A15U U49G, the self-cleavage was found to be 0.36.

A15U U49A: the self-cleavage was found to be 0.64.

Regarding A15U U49C, the self-cleavage was determined as 0.15.

As for G16U C39U, the self-cleavage worked out at 0.46.

In the case of G16C A28G, the self-cleavage is 0.15.

In the case of G16C A28U, the self-cleavage amounted to 0.24.

Take C17A U80C: the self-cleavage worked out at 0.24.

As for C17A U80G, the self-cleavage amounted to 0.23.

As to A15U C50G, the self-cleavage was 0.26.

For the variant G16A A56G, the self-cleavage was 0.4.

With G16A A56U, the self-cleavage worked out at 0.13.

As for G16A U67A, the self-cleavage is 0.34.

As to G16A U67C, the self-cleavage amounted to 0.11.

Turning to C17A U25G, the self-cleavage was 0.47.

As to C17A U25C, the self-cleavage came to 0.2.

In the case of G16C A45U, the self-cleavage came to 0.13.

With G16C A45G, the self-cleavage is 0.42.

On to A15U U60C, for which the self-cleavage was found to be 0.31.

Take A15U U60A: the self-cleavage turned out to be 0.32.

As to A15U G16U, the self-cleavage is 0.3.

For the variant A15U G16A, the self-cleavage came to 0.57.

For the variant A15U G73U, the self-cleavage amounted to 1.17.

On to A15U G73A, for which the self-cleavage amounted to 1.24.

Consider C17A A47U, for which the self-cleavage was 0.44.

C17A A47G: the self-cleavage stood at 0.28.

Turning to C17U A77G, the self-cleavage was 0.69.

Consider C17U C40U, for which the self-cleavage stood at 0.21.

For the variant A15U U67C, the self-cleavage turned out to be 0.22.

Regarding A15U U67G, the self-cleavage came out at 0.11.

Take A15U U67A: the self-cleavage amounted to 0.2.

As to G16A G73C, the self-cleavage is 0.86.

As for G16A G30C, the self-cleavage is 0.05.

For G16A G30A, the self-cleavage came out at 0.06.

With A15U C40U, the self-cleavage amounted to 0.55.

On to C17A C62G, for which the self-cleavage came out at 0.17.

As for C17U A35G, the self-cleavage turned out to be 1.26.

Take C17A U78C: the self-cleavage worked out at 0.21.

For the variant G16U C23U, the self-cleavage was found to be 0.16.

For C17G A56G, the self-cleavage worked out at 0.38.

As for C17U A45G, the self-cleavage was 0.65.

Regarding G16U U49G, the self-cleavage amounted to 0.14.

Turning to G16U U49C, the self-cleavage is 0.1.

G16C G22C: the self-cleavage is 0.07.

As for G16A A64G, the self-cleavage came to 0.45.

As for G16A A64U, the self-cleavage was 0.19.

On to G16A A47G, for which the self-cleavage was determined as 0.5.

For G16C C37U, the self-cleavage amounted to 0.16.

Consider A15U G19U, for which the self-cleavage turned out to be 0.23.

On to A15U G19C, for which the self-cleavage is 0.17.

Take C17G U60A: the self-cleavage was determined as 0.19.

As to C17G U60G, the self-cleavage is 0.25.

Turning to C17G A28G, the self-cleavage was found to be 0.16.

In the case of C17G A28C, the self-cleavage came out at 0.21.

As for C17A G53A, the self-cleavage turned out to be 0.68.

Turning to G16U A47U, the self-cleavage turned out to be 0.16.

As to G16U A47G, the self-cleavage stood at 0.32.

In the case of G16C G24C, the self-cleavage was determined as 0.2.

In the case of G16A U51A, the self-cleavage turned out to be 0.57.

As for G16A U51C, the self-cleavage amounted to 0.18.

On to G16C A47G, for which the self-cleavage stood at 0.25.

With G16U G36A, the self-cleavage is 0.37.

As for G16C U72A, the self-cleavage amounted to 0.3.

Turning to C17U C62A, the self-cleavage was determined as 0.11.

G16A U78A: the self-cleavage was found to be 0.52.

In the case of G16A U78C, the self-cleavage amounted to 0.59.

Consider G16U G24U, for which the self-cleavage came to 0.11.

As to G16U G24A, the self-cleavage came out at 0.19.

A15U G36C: the self-cleavage was 0.13.

As for A15U G36U, the self-cleavage was found to be 0.08.

Turning to G16A, the self-cleavage came out at 0.34.

G16U: the self-cleavage amounted to 0.42.

For G16C, the self-cleavage was 0.35.

A15U U72A: the self-cleavage was 1.09.

On to A15U U72G, for which the self-cleavage is 0.91.

Take A15U U72C: the self-cleavage is 0.87.
